Starred links: 1 amine or outer side, 2 acyl side, 3 side chain; linkers in the order of their positions; H or OH if unused. Positions of bridges follow the written chain, without caps; N, C: chain ends. Non-standard residues stand in square brackets, D forms with d. Groups on a side chain read outwards from the residue. Primed or numbered codes have the meaning given here. F4amCOpipzaa = 2-amino-3-(4-((4-(carboxymethyl)piperazine-1-carboxamido)methyl)phenyl)propanoic acid, O=C(NCc1ccc(C[C@H](N[*:1])C(=O)[*:2])cc1)N1CCN(CC(=O)[*:3])CC1; F4aaopipzaa = 2-amino-3-(4-(2-(4-(carboxymethyl)piperazin-1-yl)-2-oxoethoxy)phenyl)propanoic acid, O=C(COc1ccc(C[C@H](N[*:1])C(=O)[*:2])cc1)N1CCN(CC(=O)[*:3])CC1; F4aao(3) = 4-(carboxymethoxy)-L-phenylalanine ((S)-2-amino-3-(4-(carboxymethoxy)phenyl)propanoic acid), O=C([C@H](Cc1ccc(OCC(=O)[*:3])cc1)N[*:1])[*:2]; MeA4paa = 3-(1-(carboxymethyl)piperidin-4-yl)-2-(methylamino)propanoic acid, CN([C@@H](CC1CCN(CC(=O)[*:3])CC1)C(=O)[*:2])[*:1]; Thr(Me) = O-methyl threonine, (3R)-2-amino-3-methoxybutanoic acid, CO[C@H](C)[C@H](N[*:1])C(=O)[*:2]; F4aao = 4-(carboxymethoxy)-L-phenylalanine, O=C([C@H](Cc1ccc(OCC(=O)[*:3])cc1)N[*:1])[*:2]; F4aao(4) = 4-(carboxymethoxy)phenylalanine, O=C([C@H](Cc1ccc(OCC(=O)[*:3])cc1)N[*:1])[*:2]; MeHseMe(6) = (2S)-4-methoxy-2-(methylamino)butanoic acid, COCC[C@@H](C(=O)[*:2])N(C)[*:1]; MeHseMe = N-methyl-O-methyl-L-homoserine, COCC[C@@H](C(=O)[*:2])N(C)[*:1]; Thr(Me)(3) = TMe, O-methyl-L-threonine, CO[C@H](C)[C@H](N[*:1])C(=O)[*:2]; Phe(4-(1-Me-pyrazol-4-yl)) = Cn1cc(-c2ccc(C[C@H](N)C(=O)O)cc2)cn1; DOTA‑Lu(3) = DOTA chelate with cold lutetium-175, amide-linked; TMe = O-methyl-L-threonine, CO[C@H](C)[C@H](N[*:1])C(=O)[*:2]; NMeAla(isoquinolin-7-yl) = CN[C@@H](Cc1ccc2ccncc2c1)C(=O)O; Phe(4-CH2COOH) = N[C@@H](Cc1ccc(CC(=O)O)cc1)C(=O)O; Phe(4-NHCONH2) = NC(=O)Nc1ccc(C[C@H](N)C(=O)O)cc1; 3Pal(6-Ph) = N[C@@H](Cc1ccc(-c2ccccc2)nc1)C(=O)O; Phe(4-COOH) = N[C@@H](Cc1ccc(C(=O)O)cc1)C(=O)O; NMe2Nal = CN[C@@H](Cc1ccc2ccccc2c1)C(=O)O; NMeI = CC[C@H](C)[C@H](NC)C(=O)O; NMeQ = CN[C@@H](CCC(N)=O)C(=O)O; MeD = methyl-L-aspartic acid; NMeK = CN[C@@H](CCCCN)C(=O)O; NMeC = CN[C@@H](CS)C(=O)O
B1: Macrocyclic peptide of Example 2-12 (SEQ ID No. 15) (peptide)
peptide: {CH2CO}-[NMeQ][NMeQ]D[MeA4paa][Phe(4-COOH)]II[Phe(4-COOH)][NMe2Nal]G[Phe(4-(1-Me-pyrazol-4-yl))][NMeC]-NH2
modifications: thioether N-12
SMILES: CC[C@H](C)[C@@H]1NC(=O)[C@H](Cc2ccc(C(=O)O)cc2)NC(=O)[C@H](CC2CCN(CC(=O)O)CC2)N(C)C(=O)[C@H](CC(=O)O)NC(=O)[C@H](CCC(N)=O)N(C)C(=O)[C@H](CCC(N)=O)N(C)C(=O)CSC[C@@H](C(N)=O)N(C)C(=O)[C@H](Cc2ccc(-c3cnn(C)c3)cc2)NC(=O)CNC(=O)[C@H](Cc2ccc3ccccc3c2)N(C)C(=O)[C@H](Cc2ccc(C(=O)O)cc2)NC(=O)[C@H]([C@@H](C)CC)NC1=O
B2: Macrocyclic peptide of Example 2-13 (SEQ ID No. 16) (peptide)
peptide: {CH2CO}-[NMeQ][NMeQ]D[MeD][Phe(4-COOH)]II[Phe(4-COOH)][NMe2Nal]G[Phe(4-(1-Me-pyrazol-4-yl))][NMeC]-NH2
modifications: thioether N-12
B3: Macrocyclic peptide of Example 2-15 (SEQ ID No. 18) (peptide)
peptide: {CH2CO}-[NMeQ][NMeQ]D[NMeQ][Phe(4-COOH)][Thr(Me)(3)]I[Phe(4-COOH)][NMe2Nal]G[Phe(4-(1-Me-pyrazol-4-yl))][NMeC]-NH2
modifications: thioether N-12
B4: Macrocyclic peptide of Example 2-17 (SEQ ID No. 20) (peptide)
peptide: {CH2CO}-[NMeQ][NMeQ]D[NMeQ][Phe(4-COOH)]II[F4aao][NMe2Nal]G[Phe(4-(1-Me-pyrazol-4-yl))][NMeC]-NH2
modifications: thioether N-12
SMILES: CC[C@H](C)[C@@H]1NC(=O)[C@H](Cc2ccc(C(=O)O)cc2)NC(=O)[C@H](CCC(N)=O)N(C)C(=O)[C@H](CC(=O)O)NC(=O)[C@H](CCC(N)=O)N(C)C(=O)[C@H](CCC(N)=O)N(C)C(=O)CSC[C@@H](C(N)=O)N(C)C(=O)[C@H](Cc2ccc(-c3cnn(C)c3)cc2)NC(=O)CNC(=O)[C@H](Cc2ccc3ccccc3c2)N(C)C(=O)[C@H](Cc2ccc(OCC(=O)O)cc2)NC(=O)[C@H]([C@@H](C)CC)NC1=O
B5: Macrocyclic peptide of Example 2-16 (SEQ ID No. 19) (peptide)
peptide: {CH2CO}-[NMeQ][NMeQ]D[NMeQ][Phe(4-COOH)]II[Phe(4-CH2COOH)][NMe2Nal]G[Phe(4-(1-Me-pyrazol-4-yl))][NMeC]-NH2
modifications: thioether N-12
SMILES: CC[C@H](C)[C@@H]1NC(=O)[C@H](Cc2ccc(C(=O)O)cc2)NC(=O)[C@H](CCC(N)=O)N(C)C(=O)[C@H](CC(=O)O)NC(=O)[C@H](CCC(N)=O)N(C)C(=O)[C@H](CCC(N)=O)N(C)C(=O)CSC[C@@H](C(N)=O)N(C)C(=O)[C@H](Cc2ccc(-c3cnn(C)c3)cc2)NC(=O)CNC(=O)[C@H](Cc2ccc3ccccc3c2)N(C)C(=O)[C@H](Cc2ccc(CC(=O)O)cc2)NC(=O)[C@H]([C@@H](C)CC)NC1=O
B6: Macrocyclic peptide of Example 2-14 (SEQ ID No. 17) (peptide)
peptide: {CH2CO}-[NMeQ][NMeQ]D[NMeQ][F4aao(4)]II[Phe(4-COOH)][NMe2Nal]G[Phe(4-(1-Me-pyrazol-4-yl))][NMeC]-NH2
modifications: thioether N-12
SMILES: CC[C@H](C)[C@@H]1NC(=O)[C@H](Cc2ccc(OCC(=O)O)cc2)NC(=O)[C@H](CCC(N)=O)N(C)C(=O)[C@H](CC(=O)O)NC(=O)[C@H](CCC(N)=O)N(C)C(=O)[C@H](CCC(N)=O)N(C)C(=O)CSC[C@@H](C(N)=O)N(C)C(=O)[C@H](Cc2ccc(-c3cnn(C)c3)cc2)NC(=O)CNC(=O)[C@H](Cc2ccc3ccccc3c2)N(C)C(=O)[C@H](Cc2ccc(C(=O)O)cc2)NC(=O)[C@H]([C@@H](C)CC)NC1=O
B7: Lu-C-33 (peptide)
peptide: {CH2CO}-[NMeK]([dE-DOTA‑Lu(3)])[NMeI]D[NMeQ][Phe(4-COOH)]II[F4aao(3)][NMeAla(isoquinolin-7-yl)]G[3Pal(6-Ph)][NMeC]-NH2
modifications: thioether N-12
B8: Macrocyclic peptide of Example 2-20 (SEQ ID No. 38) (peptide)
peptide: {CH2CO}-[NMeQ][MeHseMe]D[NMeQ][Phe(4-COOH)][Thr(Me)]I[F4amCOpipzaa][NMe2Nal]G[3Pal(6-Ph)][NMeC]-NH2
modifications: thioether N-12
SMILES: CC[C@H](C)[C@@H]1NC(=O)[C@H]([C@@H](C)OC)NC(=O)[C@H](Cc2ccc(C(=O)O)cc2)NC(=O)[C@H](CCC(N)=O)N(C)C(=O)[C@H](CC(=O)O)NC(=O)[C@H](CCOC)N(C)C(=O)[C@H](CCC(N)=O)N(C)C(=O)CSC[C@@H](C(N)=O)N(C)C(=O)[C@H](Cc2ccc(-c3ccccc3)nc2)NC(=O)CNC(=O)[C@H](Cc2ccc3ccccc3c2)N(C)C(=O)[C@H](Cc2ccc(CNC(=O)N3CCN(CC(=O)O)CC3)cc2)NC1=O
B9: Macrocyclic peptide of Example 2-22 (SEQ ID No. 40) (peptide)
peptide: {CH2CO}-[NMeQ][MeHseMe]D[NMeQ][Phe(4-COOH)][Thr(Me)(3)]I[F4aaopipzaa][NMe2Nal]G[3Pal(6-Ph)][NMeC]-NH2
modifications: thioether N-12
SMILES: CC[C@H](C)[C@@H]1NC(=O)[C@H]([C@@H](C)OC)NC(=O)[C@H](Cc2ccc(C(=O)O)cc2)NC(=O)[C@H](CCC(N)=O)N(C)C(=O)[C@H](CC(=O)O)NC(=O)[C@H](CCOC)N(C)C(=O)[C@H](CCC(N)=O)N(C)C(=O)CSC[C@@H](C(N)=O)N(C)C(=O)[C@H](Cc2ccc(-c3ccccc3)nc2)NC(=O)CNC(=O)[C@H](Cc2ccc3ccccc3c2)N(C)C(=O)[C@H](Cc2ccc(OCC(=O)N3CCN(CC(=O)O)CC3)cc2)NC1=O
B10: Lu-C-45 (peptide)
peptide: Ac-[NMeK](DOTA‑Lu(3))[MeHseMe(6)]D[NMeQ][Phe(4-COOH)][TMe]IY[NMeAla(isoquinolin-7-yl)]G[3Pal(6-Ph)][NMeC]-NH2
modifications: bridge N-12; not fully specified (bridges); also: cold Lu-175 chelated by DOTA
B11: Lu-C-35 (peptide)
peptide: KQDQFTIFFGXC
modifications: not fully specified; MeK(DOTA-Lu)-MeQ-D-MeQ-F4COO-TMe-I-F4aao-MeNal27N-G-3Py6Ph-MeC-NH2; thioether ring from N-terminal acetyl to MeC12
B12: Macrocyclic peptide of Example 2-21 (SEQ ID No. 39) (peptide)
peptide: {CH2CO}-[NMeQ][MeHseMe]D[NMeQ][Phe(4-COOH)][Thr(Me)]I[Phe(4-NHCONH2)][NMe2Nal]G[3Pal(6-Ph)][NMeC]-NH2
modifications: thioether N-12
SMILES: CC[C@H](C)[C@@H]1NC(=O)[C@H]([C@@H](C)OC)NC(=O)[C@H](Cc2ccc(C(=O)O)cc2)NC(=O)[C@H](CCC(N)=O)N(C)C(=O)[C@H](CC(=O)O)NC(=O)[C@H](CCOC)N(C)C(=O)[C@H](CCC(N)=O)N(C)C(=O)CSC[C@@H](C(N)=O)N(C)C(=O)[C@H](Cc2ccc(-c3ccccc3)nc2)NC(=O)CNC(=O)[C@H](Cc2ccc3ccccc3c2)N(C)C(=O)[C@H](Cc2ccc(NC(N)=O)cc2)NC1=O
B13: Lu-C-42 (peptide)
peptide: {CH2CO}-K[NMeI]D[NMeQ][Phe(4-COOH)]II[F4aao][NMeAla(isoquinolin-7-yl)]G[3Pal(6-Ph)][NMeC]-NH2
modifications: thioether N-12; not fully specified (residue 1); also: DOTA-Lu: cold Lu-175 complex

Target: T1, human Glypican3 (R&D systems, catalog number: 2119-GP) (human, UniProt P51654 25-559, limits assumed)
T1 construct: Bought recombinant protein, amine-coupled to the chip in Method B-1; also called GPC3; hGPC3
Assay: SPR (Biacore T200), Method B-1: human Glypican3 amine-coupled to CM3 chip, peptide as analyte
Protocol: A CM3 sensor chip (Cytiva) was inserted into a Biacore T200 (Cytiva), primed three times with a running buffer: HBS-P+, pH 7.4 (Cytiva), and equilibrated at a flow rate of 30 μL/min. Ligand immobilization was performed at a flow rate of 10 μL/min. 50 μL each of 60 mM EDC solution (Cytiva) and 650 mM NHS solution (Cytiva) were mixed, and then reacted at a flow rate of 10 μL/min for 420 seconds, 150 μL of 0.2 μM human Glypican3 (R&D systems, catalog number: 2119-GP) solution which was prepared by diluting with 10 mM acetic acid solution (pH 5.0), was reacted at a flow rate of 10 μL/min for 420 seconds, and Glypican3 was immobilized on the CM3 sensor chip. After immobilization, 1.0 M ethanolamine aqueous solution (Cytiva) was allowed to react for 420 seconds at a flow rate of 10 μL/min for capping. A peptide lysate prepared to 10 mM in DMSO solution was diluted with running buffer to a final concentration of 10 μM peptide lysate. […] Using the above samples, peptide kinetics for Glypican3 was obtained by SPR measurement. Kinetics evaluation of Glypican3 was performed by SPR measurements at a flow rate of 10 μL/min, setting the association time to 120 seconds and the disassociation time to 600 seconds.
(§1) The obtained data by Method B-1, Method B-2, Method B-3 and Method B-4 were analyzed by follow. Single Cycle Kinetics was used as the kinetics evaluation model, and curve fitting was performed using Biacore T200 Evaluation Software Version 3.0 (Cytiva).

| Binder | Kd |
| --- | --- |
| B1 | 2.9 nM |
| B2 | 2.8 nM |
| B3 | 1.8 nM |
| B4 | 1.9 nM |
| B5 | 3.5 nM |
| B6 | 4.8 nM |

Target: T2, Human Glypican3-Fc (ACRO Biosystems, GP3-H5258) (human, UniProt P51654 25-559)
T2 construct: Bought fusion protein, captured in Methods B-2, B-3 and B-4; Catalogue number is printed only in Method B-2; not shown: Fc part of the bought fusion
Assay: SPR (Biacore T200), Method B-2: human Glypican3-Fc captured by anti-human Fc on CM3 chip, peptide as analyte
Protocol: A CM3 sensor chip (Cytiva) was inserted into a Biacore T200 (Cytiva), primed three times with a running buffer: HBS-P-+, pH 7.4 (Cytiva), and equilibrated at a flow rate of 30 μL/min. Using the Anti-Fc Capture Kit (Cytiva), 50 LL each of 60 mM EDC solution (Cytiva) and 650 mM NHS solution (Cytiva) were mixed, and then reacted at a flow rate of 10 μL/min for 420 seconds, 150 μL of […] Anti-human IgG (Fc) Antibody solution was prepared by diluting with 10 mM acetic acid solution (pH 5.0), reacted at a flow rate of 10 μL/min for 420 seconds, and immobilized on a CM3 sensor chip. After immobilization, 1.0 M ethanolamine aqueous solution (Cytiva) was allowed to react for 420 seconds at a flow rate of 10 μL/min for capping. Human Glypican3-Fc (ACRO Biosystems, GP3-H5258) was allowed to react for 60 seconds at a flow rate of 10 μL/min. After capturing human Glypican3-Fc, a peptide solution prepared to 10 mM in DMSO solution was diluted with a running buffer to a final concentration of 10 μM. […] Using the above samples, peptide kinetics for Glypican3 was obtained by SPR measurement. Kinetics evaluation of Glypican3 was performed by SPR measurements at a flow rate of 10 μL/min. setting the association time to 120 seconds and the disassociation time to 600 seconds.
as §1

| Binder | Kd |
| --- | --- |
| B7 | 0.87 nM |
| B8 | 0.7 nM |
| B9 | 0.8 nM |
| B10 | 0.74 nM |
| B11 | 2.03 nM |
| B12 | 0.4 nM |
| B13 | 0.67 nM |
